In doi:10.1101/2020.02.24.962464, “Kinetics characterization of ASXL1/2-mediated allosteric regulation of BAP1 deubiquitinase” (bioRxiv, 2020):
“And” between values parts separate entries of the source, which are not always exact repeats. Equal entries are not always repeated.

B1: His-ULD/AB protein complex (pETDuet-1-His-BAP1-ULD+ASXL2-AB) (complex, human)
chain 1: KEVVEATDSREKTGMVRPGEPLSGEKYSPKELLALLKCVEAEIANYEACLKEEVEKRKKFKIDDQRRTHNYDEFICTFISMLAQEGMLANLVEQNISVRRRQGVSIGRLHKQRKPDRRKRSRPYKAKRQ
chain 2: MKRTKCADIDVETPDSILVNTNLRALINKHTFSVLPGDCQQRLLLLLPEVDRQVGPDGLMKLNGSALNNEFFTSAAQGWKERLSEGEFTPEMQVRIRQEIEKEKKVEPWKEQFFESYYGQS
notes: BAP1, human, ULD domain; ASXL2, human, AB box; Complex formed beforehand by co-expression; used as one analyte in pull-down, SPR and Ub-AMC assays; also called ULD/AB complex; Duet-His-ULD/AB; source: E. coli Rosetta 2 (DE3) pLysS, co-expressed from pETDuet-1, purified (cobalt beads, Talon, native conditions)
B2: His-ASXL2-AB (261-381 aa) (domain or fragment, human, UniProt Q76L83 261-381, looked up)
chain: MKRTKCADIDVETPDSILVNTNLRALINKHTFSVLPGDCQQRLLLLLPEVDRQVGPDGLMKLNGSALNNEFFTSAAQGWKERLSEGEFTPEMQVRIRQEIEKEKKVEPWKEQFFESYYGQS
notes: ASXL2, human, AB box, residues 261-381 (pQE30-ASXL2-AB); also called His-AB; AB box
B3: His-BAP1-ULD (601-729 aa) (domain or fragment, human, UniProt Q92560 601-729, looked up)
chain: KEVVEATDSREKTGMVRPGEPLSGEKYSPKELLALLKCVEAEIANYEACLKEEVEKRKKFKIDDQRRTHNYDEFICTFISMLAQEGMLANLVEQNISVRRRQGVSIGRLHKQRKPDRRKRSRPYKAKRQ
notes: BAP1, human, UCH37-like domain (ULD), residues 601-729 (pQE30-BAP1-ULD); also called His-ULD; ULD domain

Key:
[1] = target: T1, full-length His-BAP1 (Bv-His-BAP1-FL-WT) (human, UniProt Q92560 1-729); assay: SPR; Biacore T200; full-length His-BAP1, GST-UCH or GST alone amine-coupled to a CM5 chip (~3000 RU), His-ULD/AB complex injected; 25 mM HEPES pH 7.4, 250 mM NaCl, 5 mM DTT, 0.05% Tween20; steady-state and kinetic one-site fits; conditions: both partners purified
T1 construct: BAP1, human, full-length wild type; the SPR methods name 'Full-length His-BAP1'; also called full-length BAP1; pFastBacTHa-BAP1-FL-WT; source: Sf9 cells infected with baculovirus, purified (Ni-NTA, native conditions); not shown: His tag, N-terminal, kept
T1 sequence (looked up): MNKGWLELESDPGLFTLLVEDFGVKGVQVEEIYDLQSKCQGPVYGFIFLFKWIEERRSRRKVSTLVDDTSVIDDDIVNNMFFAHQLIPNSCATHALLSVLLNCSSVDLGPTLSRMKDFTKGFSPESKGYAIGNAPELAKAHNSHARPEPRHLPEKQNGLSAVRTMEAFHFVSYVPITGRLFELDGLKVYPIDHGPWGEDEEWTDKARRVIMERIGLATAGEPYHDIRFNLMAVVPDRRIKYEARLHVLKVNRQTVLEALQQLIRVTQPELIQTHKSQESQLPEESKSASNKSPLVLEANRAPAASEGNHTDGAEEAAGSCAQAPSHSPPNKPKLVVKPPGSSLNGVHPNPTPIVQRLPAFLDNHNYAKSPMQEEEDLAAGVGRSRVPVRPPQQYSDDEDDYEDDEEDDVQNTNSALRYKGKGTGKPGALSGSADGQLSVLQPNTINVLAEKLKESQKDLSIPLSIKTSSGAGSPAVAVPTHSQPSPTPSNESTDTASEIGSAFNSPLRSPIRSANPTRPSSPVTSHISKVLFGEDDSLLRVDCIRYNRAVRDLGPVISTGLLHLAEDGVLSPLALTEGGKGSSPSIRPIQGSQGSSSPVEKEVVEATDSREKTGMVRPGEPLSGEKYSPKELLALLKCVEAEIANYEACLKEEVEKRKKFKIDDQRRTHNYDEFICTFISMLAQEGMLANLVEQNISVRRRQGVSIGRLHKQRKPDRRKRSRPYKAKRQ

[2] = target: T1, full-length His-BAP1 (Bv-His-BAP1-FL-WT); assay: cell-based or functional assay
[3] = target: T2, full-length His-BAP1 (Bv-His-BAP1-FL-WT) (human, UniProt Q92560 1-729); assay: SPR; steady-state equilibrium
T2 chain: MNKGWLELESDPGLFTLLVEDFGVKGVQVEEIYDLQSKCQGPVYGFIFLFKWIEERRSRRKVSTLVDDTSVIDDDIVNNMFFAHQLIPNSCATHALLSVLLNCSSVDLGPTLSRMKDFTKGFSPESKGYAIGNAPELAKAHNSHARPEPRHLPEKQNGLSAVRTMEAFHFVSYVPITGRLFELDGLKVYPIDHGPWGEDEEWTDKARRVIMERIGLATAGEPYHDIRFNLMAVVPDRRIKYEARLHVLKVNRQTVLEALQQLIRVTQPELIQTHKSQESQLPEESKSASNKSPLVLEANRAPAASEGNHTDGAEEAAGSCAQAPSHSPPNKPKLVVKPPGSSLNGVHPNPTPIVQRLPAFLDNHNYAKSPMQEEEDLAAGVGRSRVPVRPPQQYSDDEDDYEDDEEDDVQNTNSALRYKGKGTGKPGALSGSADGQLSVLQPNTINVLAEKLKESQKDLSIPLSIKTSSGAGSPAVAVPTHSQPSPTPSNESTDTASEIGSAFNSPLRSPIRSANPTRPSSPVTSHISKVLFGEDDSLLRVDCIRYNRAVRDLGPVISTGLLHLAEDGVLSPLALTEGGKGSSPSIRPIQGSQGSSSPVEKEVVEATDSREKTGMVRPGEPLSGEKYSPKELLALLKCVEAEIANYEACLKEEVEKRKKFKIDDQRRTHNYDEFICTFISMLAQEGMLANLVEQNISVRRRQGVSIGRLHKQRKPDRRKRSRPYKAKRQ

GST-BAP1-ULD = target: T3, GST-BAP1-ULD (human, UniProt Q92560 601-729); assay: SPR; Biacore T200; GST-ULD captured by anti-GST antibody on a CM5 chip (400 RU), His-AB injected; 25 mM HEPES pH 7.4, 150 mM NaCl, 5 mM DTT, 0.05% Tween20; steady-state and kinetic one-site fits; conditions: both partners purified
T3 construct: BAP1, human, ULD domain; also called GST-ULD; pGEX-4T-1-BAP1-ULD; source: E. coli BL21 (DE3), purified (GST resin, native conditions)
T3 sequence (looked up): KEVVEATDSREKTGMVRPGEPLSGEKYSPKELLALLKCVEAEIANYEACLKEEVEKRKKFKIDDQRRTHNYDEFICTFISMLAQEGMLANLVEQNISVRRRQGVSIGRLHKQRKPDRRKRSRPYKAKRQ

[4] = target: B3; assay: ITC; Microcal ITC 200; His-AB 77 µM in the cell, His-ULD 574 µM titrated; 50 mM potassium phosphate pH 7.5, 200 mM potassium chloride, 1 mM TCEP; duplicate; conditions: both partners purified
[5] = target: B2; assay: as above; conditions: both partners purified
[6] = target: B1; assay: SPR; Biacore T200; full-length His-BAP1, GST-UCH or GST alone amine-coupled to a CM5 chip (~3000 RU), His-ULD/AB complex injected; 25 mM HEPES pH 7.4, 250 mM NaCl, 5 mM DTT, 0.05% Tween20; steady-state and kinetic one-site fits; conditions: both partners purified

How did the Kd [1] turn out when B1 was run?
The Kd was 0.85 µM and 1.91 µM.

What about the koff [1] of the same binder?
The koff was 0.033 s⁻¹.

What about the kon [1] of the same binder?
Its kon is 39000 M⁻¹ s⁻¹.

And the “fold increase of BAP1 specific activity (100 nM Ub-AMC) with increasing concentrations of His-ULD/AB” value [2]?
Its value is 4.5 fold.

What about the Kd [3] of the same binder?
Its Kd is 0.74 µM.

How did the Kd (GST-BAP1-ULD) turn out when B2 was run?
The Kd was 0.134 µM and 0.067 µM.

And the koff (GST-BAP1-ULD)?
Its koff is 0.0024 s⁻¹.

And the kon (GST-BAP1-ULD)?
The kon was 38000 M⁻¹ s⁻¹.

What about the “fold increase of the maximal velocity of BAP1 cleavage of Ub-AMC with increasing concentrations of ASXL2-AB” value [2] of the same binder?
The value was 2.5 fold.

What about the Kd [4] of the same binder?
The Kd was roughly 4.26 µM.

How did the dH [5] turn out when B3 was run?
Its dH is -41.3 kJ/mol.

And the “stoichiometry N” value [5]?
Its value is 1.

B4: GST-BAP1-UCH-WT (1-250 aa) (domain or fragment, human, UniProt Q92560 1-250, looked up)
chain: MNKGWLELESDPGLFTLLVEDFGVKGVQVEEIYDLQSKCQGPVYGFIFLFKWIEERRSRRKVSTLVDDTSVIDDDIVNNMFFAHQLIPNSCATHALLSVLLNCSSVDLGPTLSRMKDFTKGFSPESKGYAIGNAPELAKAHNSHARPEPRHLPEKQNGLSAVRTMEAFHFVSYVPITGRLFELDGLKVYPIDHGPWGEDEEWTDKARRVIMERIGLATAGEPYHDIRFNLMAVVPDRRIKYEARLHVLKV
notes: BAP1, human, ubiquitin C-terminal hydrolase (UCH) domain, residues 1-250 (pGEX-2TK-BAP1-UCH-WT); also called GST-UCH; pGEX-2TK-BAP1-UCH-WT; source: E. coli BL21 (DE3), purified (GST resin, native conditions)
Which koff [6] does the source give for B4 here?
The koff was 0.044 s⁻¹.

What about the kon [6] of the same binder?
The kon was 19000 M⁻¹ s⁻¹.
